Source: US10456465B2, “Compositions, kits, and methods for the diagnosis prognosis, monitoring, treatment and modulation of post-transplant lymphoproliferative disorders and hypoxia associated angiogenesis disorders using galectin-1” (Dana-Farber Cancer Institute, Inc., priority 2009, dated 2019)

B1: anti-Gal1 monoclonal antibody 8F4F8G7 (antibody, V domains shown)
VH: EVQLQQSVAEFVRPGASVRLSCTASGFNIKNTYIHWVRQRPEQGLEWIGKIDPANGNTKYVPEFQGKATMTADTSSNTVYLHLSSLTSEDTAIYYCVDGYYGWYFAVWGTGTTVTVSS
VL: QAVVTQESALTTSPGETVTLTCRSSTGAVTTSNYANWVQEKPDHLFTGLIGATNNRAPGVPARFSGSLIGDKAVLTITGAQTEDEAIYFCALWYRNHFIFGSGTKVTVL
notes: Murine hybridoma mAb (deposit PTA-10535), lambda light chain; also called 14-19 8F4-F8-G7; clone 8F4.8F.67

Legend:
HUVEC = assay: ELISA of VEGF secretion by HUVEC; type: cell-based, human; conditions: HUVEC incubated with Gal1
Description: Mouse IFN-γ and IL-10 ELISA sets were from BD Biosciences and mouse IL-17 kit was from R&D. Human soluble VEGF was assessed by ELISA (DY293B; R&D). Soluble Gal1 was determined using an in-house ELISA. Briefly, high binding 96-well microplates (Corning Costar) were coated with capture antibody (2 μg/ml purified rabbit anti-Gal1 polyclonal IgG) in 0.1 M sodium carbonate pH 9.5. After incubation for 18 hours at 4° C., wells were rinsed three times with wash buffer (0.05% Tween-20 in PBS) and incubated for 1 h at RT with blocking solution (2% BSA in PBS). Samples and standards (100 μl) were diluted in 1% BSA and incubated for 18 hours at 4° C. Plates were then washed and incubated with 100 ng/ml biotinylated detection antibody (purified rabbit anti-Gal1 polyclonal IgG) for 1 hour at RT. Plates were rinsed three times before adding horseradish peroxidase-labeled streptavidin (0.33 μg/ml; Sigma) for 30 min at RT. After washing, 100 μl of TMB solution (0.1 mg/ml tetramethylbenzidine and 0.06% H2O2 in citrate-phosphate buffer pH 5) was added to the plates. The reaction was stopped by adding 4N H2SO4. Optical densities were determined at 450 nm in a Multiskan MS microplate reader (Thermo Electron Corporation). A standard curve ranging from 2.5 to 160 ng/ml recombinant Gal1 was run in parallel.

mice (Matrigel plugs) = assay: In vivo vascularization of Matrigel sponges; design: species or system mouse; conditions: Gal1 0.1 or 3 μM; 6 days; hemoglobin content
Description: Invasion assays were performed using the BioCoat Angiogenesis system (BD Biosciences) following manufacturer's recommendations. For assessment of in vivo angiogenesis, growth factor-reduced Matrigel (BD Biosciences) was mixed with Gal1 (0.1 or 3 μM) with or without lactose (30 mM). In another set of experiments, serum-free CM from KS cells infected or not with a retroviral vector expressing Gal1 shRNA and cultured under hypoxic or normoxic conditions, were added to unpolymerized Matrigel and injected subcutaneously into the flanks of either wild-type or Lgals1^−/− (B6) mice or nude mice using a cold syringe. Matrigel embedded with buffer alone was used as negative control and a cocktail containing VEGF (50 ng/ml), heparin (50 U/ml) and TNF (2 ng/ml) was used as positive control. After 6 days, Matrigel plugs were collected by surgery, photographed and weighed. Samples were minced and diluted in water to measure hemoglobin content using the Drabkin reagent kit (Sigma). Each sample was normalized to 100 mg of recovered gel and confronted with a standard curve of mouse blood hemoglobin.

VEGFR2 [1] = molecular target: T1, VEGFR2 (Homo sapiens, UniProt P35968); assay: Co-immunoprecipitation of Gal1 with VEGFR2 in HUVEC lysates; type: binding; conditions: lysates of human ECs treated with Gal1
T1 construct: co-immunoprecipitation results followed by immunoblot analysis of HUVEC lysates; endogenous in cells; host or cells: primary HUVEC
T1 sequence (P35968 20-1356): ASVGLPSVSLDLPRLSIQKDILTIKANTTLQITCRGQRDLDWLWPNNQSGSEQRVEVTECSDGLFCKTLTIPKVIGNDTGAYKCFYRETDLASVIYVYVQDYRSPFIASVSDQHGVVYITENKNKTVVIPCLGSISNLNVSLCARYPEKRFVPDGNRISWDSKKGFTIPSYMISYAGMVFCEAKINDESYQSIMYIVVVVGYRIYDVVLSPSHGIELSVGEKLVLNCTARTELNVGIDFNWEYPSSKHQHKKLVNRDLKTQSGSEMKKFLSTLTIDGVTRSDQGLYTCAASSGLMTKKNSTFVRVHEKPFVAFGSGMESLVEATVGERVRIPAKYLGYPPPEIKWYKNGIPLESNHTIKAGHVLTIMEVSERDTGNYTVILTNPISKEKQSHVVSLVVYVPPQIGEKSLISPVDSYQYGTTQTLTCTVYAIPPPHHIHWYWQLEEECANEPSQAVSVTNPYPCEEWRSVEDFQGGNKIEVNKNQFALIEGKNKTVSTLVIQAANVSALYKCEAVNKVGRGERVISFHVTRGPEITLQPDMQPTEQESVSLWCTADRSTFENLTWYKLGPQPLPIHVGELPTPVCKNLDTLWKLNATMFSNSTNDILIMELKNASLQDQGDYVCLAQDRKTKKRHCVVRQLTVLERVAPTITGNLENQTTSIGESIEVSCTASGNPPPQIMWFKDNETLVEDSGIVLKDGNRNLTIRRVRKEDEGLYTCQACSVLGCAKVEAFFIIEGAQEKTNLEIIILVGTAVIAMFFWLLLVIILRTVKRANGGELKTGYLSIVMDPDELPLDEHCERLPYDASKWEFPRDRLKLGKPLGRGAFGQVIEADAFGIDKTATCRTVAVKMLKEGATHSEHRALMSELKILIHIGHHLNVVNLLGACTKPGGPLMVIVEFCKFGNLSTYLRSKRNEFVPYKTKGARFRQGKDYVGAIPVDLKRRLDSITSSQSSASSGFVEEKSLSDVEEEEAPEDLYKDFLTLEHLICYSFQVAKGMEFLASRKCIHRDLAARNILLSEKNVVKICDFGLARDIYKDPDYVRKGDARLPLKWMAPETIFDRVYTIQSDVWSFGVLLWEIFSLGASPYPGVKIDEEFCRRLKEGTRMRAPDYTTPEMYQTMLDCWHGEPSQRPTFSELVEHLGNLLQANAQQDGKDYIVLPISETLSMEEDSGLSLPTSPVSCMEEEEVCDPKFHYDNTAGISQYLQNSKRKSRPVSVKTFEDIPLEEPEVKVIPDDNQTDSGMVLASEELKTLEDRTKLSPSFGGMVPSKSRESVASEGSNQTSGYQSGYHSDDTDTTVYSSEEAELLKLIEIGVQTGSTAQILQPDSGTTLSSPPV
T1 sequence (P09382 2-135 partner limits assumed): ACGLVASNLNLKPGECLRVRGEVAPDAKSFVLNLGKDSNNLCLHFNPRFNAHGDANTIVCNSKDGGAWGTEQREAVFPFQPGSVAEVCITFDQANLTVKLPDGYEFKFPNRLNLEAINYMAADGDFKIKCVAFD
Description: (§1) Array (Cell Signaling) following manufacturer's directions. For co-immunoprecipitation, 500 μg cell lysates were incubated with 2 μg of anti-VEGFR2 (55B11; Cell Signaling) or anti-NRP-1 (C-19; Santa Cruz Biotechnol) antibodies. The immunocomplexes were captured with protein G PLUS-Agarose (Santa Cruz Biotechnol) and processed for immunoblot analysis as described in Ilarregui et al. (2009) Nat Immunol 10, 981-991. Equal amounts of protein were resolved by SDS-PAGE, blotted onto nitrocellulose membranes (GE Healthcare) and probed with anti-IκB-α (C21), anti-Erk1/2 (C14), anti-phospho-Erk1/2 (E4) or anti-actin (I-19) (all from Santa Cruz Biotechnol) or anti-Akt (9272), anti-phospho-Akt (9271S), anti-VEGFR2 (55B11), anti-phospho-VEGFR2 (19A10) (all from Cell Signaling) or anti-HIF-1α (mgc3; ABR BioReagent) antibodies or a rabbit anti-Gal1 IgG (1.5 μg/ml) obtained as described in Ilarregui et al. (2009) Nat Immunol 10, 981-991.

[2] = test system: EBV-specific CD8+ T cells; assay: rGal1-induced killing of EBV-specific CTLs; type: cell-based, human; conditions: rGal1 alone, 1.25, 2.5 or 5 μM; 4 h; 7AAD
Description: After informed consent, 40-60 ml of peripheral blood from healthy donors was used to generate both EBV-transformed LCLs and EBV-specific CTLs (Straathof et al. (2005) Blood 105:1898-904). In brief, 5×10^6 peripheral blood mononuclear cells (PBMCs) were incubated with concentrated culture supernatant from the marmoset B-lymphoblastoid cell line, B95-8, in the presence of 1 μg/ml cyclosporin A (Sandoz, Vienna, Austria) to establish a LCL. Subsequently, PBMCs (2×10^6 per well of a 24-well plate) were stimulated with irradiated LCLs (at 4,000 rads) at an effector-stimulator (E/S) ratio of 40:1. After 10 days, viable cells were restimulated with irradiated LCLs (at 4:1 E/S ratio). CTLs were expanded by weekly stimulations with autologous irradiated LCLs (at 4:1 E/S ratio) in the presence of recombinant human interleukin-2 (rhIL-2, Proleukin; Chiron Emeryville, Calif.) at concentration of 40 U/ml. After 5 cycles of stimulation, CTLs were tested for EBV specificity and cryopreserved. […]
CTLs were thawed in AIM-V media (Invitrogen) containing 10 U/ml of DNAse I (Roche Applied Science, Indianapolis, Ind.) and rested in culture overnight. […] After 4 hours, the viability of EBV-specific CD8^+ T cells was measured using 7AAD and APC-Cy7-labelled CD8 (BD Biosciences, San Jose, Calif.).

recombinant His-Gal1 = molecular target: T2, recombinant His-Gal1 (human, UniProt P09382 1-135, limits assumed); assay: ELISA on recombinant protein
T2 construct: not shown: His tag
T2 sequence (P09382 whole entry): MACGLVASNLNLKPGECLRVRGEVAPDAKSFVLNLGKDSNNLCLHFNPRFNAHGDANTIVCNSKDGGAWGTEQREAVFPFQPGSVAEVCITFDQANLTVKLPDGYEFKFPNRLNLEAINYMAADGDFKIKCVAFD
From the text: (§2) Anti-human Gal1 mAbs were obtained by immunizing B6-Cg-Tg (BCL2)22Wehi-J mice (Jackson Labs, Bar Harbor, Me.) with recombinant human glutathione-s-transferase (GST)-Gal1, generating anti-Gal1 hybridomas with standard methods and purifying the Gal1 monoclonal antibody and class-matched IgG2bλ, control by affinity chromatography. […] A previously described anti-Gal1 polyclonal antibody (Juszczynski et al. (2007) *Proc Natl Acad Sci USA* 104:13134-9) was used as a positive control in all assays.

[3] = molecular target: T3, recombinant human glutathione-s-transferase (GST)-Gal1 (human, UniProt P09382 1-135); assay: ELISA on recombinant protein
T3 construct: Immunogen and ELISA antigen; not shown: glutathione-S-transferase (GST) tag
T3 sequence (P09382 whole entry): as above
From the text: as §2

VEGFR2 [4] = assay: Immunoblot of VEGFR2 phosphorylation in HUVEC; type: cell-based, human
Description: as §1

Molecule | VEGF secretion (HUVEC) | vascularization of Matrigel sponges containing recombinant Gal1 (mice (Matrigel plugs)) | association with VEGFR2 (VEGFR2 [1]) | apoptosis of EBV-specific CD8+ T cells [2] | binding result (recombinant His-Gal1) | binding result [3] | VEGFR2 phosphorylation in response to Gal1 (VEGFR2 [4])
rGal1: recombinant human galectin-1 | lack of effects | rapidly became vascularized | associated specifically | induced massive apoptosis | – | – | –
B1 | – | – | – | – | binds | binds | specifically inhibited
